B1: Copu9 (Coniophora puteana RWD-64-598 SS2; N228A) (protein)
chain: MSPTATFTTTSSEENAPTKFILPDLVSDCTYPLLLNDNCEPVARASEQWLIAGARLQEPRRTKFMGLLAGELTAACYPHADASHLRVCVDFMNWLFNMDDWLDDFDVDDTWGMRHCCLGAFRDPVGFETDKLGGLMSKSFFSRFRQDGGPGCTERFIHTMDLFFIAVAQQAGDRANGITPDLESYITVRRDTSGCKPCFALIEYAAGIDLPDHVIYHPTLAAMEEATADLVTWSNDIFSYNKEQVTDDTHNMIPVLMRERGLDLQGAVDFVGRLCKGTIERFETERARLPSWGPELDAQVQTYIEGLQNWIVGSLHWSFDSHRYFGKDGHAVKKHRIVKLLPKRVPQQA
notes: full-length, codon-optimized, N-terminal hexa-His tag (pET-M11), expressed in E. coli BL21 RIL DE3; homodimer; 13 N-terminal residues not visible in crystal
B2: Copu9 (Coniophora puteana RWD-64-598 SS2; C195V) (protein)
chain: MSPTATFTTTSSEENAPTKFILPDLVSDCTYPLLLNDNCEPVARASEQWLIAGARLQEPRRTKFMGLLAGELTAACYPHADASHLRVCVDFMNWLFNMDDWLDDFDVDDTWGMRHCCLGAFRDPVGFETDKLGGLMSKSFFSRFRQDGGPGCTERFIHTMDLFFIAVAQQAGDRANGITPDLESYITVRRDTSGVKPCFALIEYAAGIDLPDHVIYHPTLAAMEEATNDLVTWSNDIFSYNKEQVTDDTHNMIPVLMRERGLDLQGAVDFVGRLCKGTIERFETERARLPSWGPELDAQVQTYIEGLQNWIVGSLHWSFDSHRYFGKDGHAVKKHRIVKLLPKRVPQQA
notes: as for B1
B3: Copu9 (Coniophora puteana RWD-64-598 SS2; G194A) (protein)
chain: MSPTATFTTTSSEENAPTKFILPDLVSDCTYPLLLNDNCEPVARASEQWLIAGARLQEPRRTKFMGLLAGELTAACYPHADASHLRVCVDFMNWLFNMDDWLDDFDVDDTWGMRHCCLGAFRDPVGFETDKLGGLMSKSFFSRFRQDGGPGCTERFIHTMDLFFIAVAQQAGDRANGITPDLESYITVRRDTSACKPCFALIEYAAGIDLPDHVIYHPTLAAMEEATNDLVTWSNDIFSYNKEQVTDDTHNMIPVLMRERGLDLQGAVDFVGRLCKGTIERFETERARLPSWGPELDAQVQTYIEGLQNWIVGSLHWSFDSHRYFGKDGHAVKKHRIVKLLPKRVPQQA
notes: as for B1
B4: Copu9 (Coniophora puteana RWD-64-598 SS2; T192N) (protein)
chain: MSPTATFTTTSSEENAPTKFILPDLVSDCTYPLLLNDNCEPVARASEQWLIAGARLQEPRRTKFMGLLAGELTAACYPHADASHLRVCVDFMNWLFNMDDWLDDFDVDDTWGMRHCCLGAFRDPVGFETDKLGGLMSKSFFSRFRQDGGPGCTERFIHTMDLFFIAVAQQAGDRANGITPDLESYITVRRDNSGCKPCFALIEYAAGIDLPDHVIYHPTLAAMEEATNDLVTWSNDIFSYNKEQVTDDTHNMIPVLMRERGLDLQGAVDFVGRLCKGTIERFETERARLPSWGPELDAQVQTYIEGLQNWIVGSLHWSFDSHRYFGKDGHAVKKHRIVKLLPKRVPQQA
notes: as for B1
B5: Copu9 (Coniophora puteana RWD-64-598 SS2; P197C) (protein)
chain: MSPTATFTTTSSEENAPTKFILPDLVSDCTYPLLLNDNCEPVARASEQWLIAGARLQEPRRTKFMGLLAGELTAACYPHADASHLRVCVDFMNWLFNMDDWLDDFDVDDTWGMRHCCLGAFRDPVGFETDKLGGLMSKSFFSRFRQDGGPGCTERFIHTMDLFFIAVAQQAGDRANGITPDLESYITVRRDTSGCKCCFALIEYAAGIDLPDHVIYHPTLAAMEEATNDLVTWSNDIFSYNKEQVTDDTHNMIPVLMRERGLDLQGAVDFVGRLCKGTIERFETERARLPSWGPELDAQVQTYIEGLQNWIVGSLHWSFDSHRYFGKDGHAVKKHRIVKLLPKRVPQQA
notes: as for B1
B6: Copu9 (Coniophora puteana RWD-64-598 SS2; C76V) (protein)
chain: MSPTATFTTTSSEENAPTKFILPDLVSDCTYPLLLNDNCEPVARASEQWLIAGARLQEPRRTKFMGLLAGELTAAVYPHADASHLRVCVDFMNWLFNMDDWLDDFDVDDTWGMRHCCLGAFRDPVGFETDKLGGLMSKSFFSRFRQDGGPGCTERFIHTMDLFFIAVAQQAGDRANGITPDLESYITVRRDTSGCKPCFALIEYAAGIDLPDHVIYHPTLAAMEEATNDLVTWSNDIFSYNKEQVTDDTHNMIPVLMRERGLDLQGAVDFVGRLCKGTIERFETERARLPSWGPELDAQVQTYIEGLQNWIVGSLHWSFDSHRYFGKDGHAVKKHRIVKLLPKRVPQQA
notes: as for B1
B7: Copu9 (Coniophora puteana RWD-64-598 SS2; T73C) (protein)
chain: MSPTATFTTTSSEENAPTKFILPDLVSDCTYPLLLNDNCEPVARASEQWLIAGARLQEPRRTKFMGLLAGELCAACYPHADASHLRVCVDFMNWLFNMDDWLDDFDVDDTWGMRHCCLGAFRDPVGFETDKLGGLMSKSFFSRFRQDGGPGCTERFIHTMDLFFIAVAQQAGDRANGITPDLESYITVRRDTSGCKPCFALIEYAAGIDLPDHVIYHPTLAAMEEATNDLVTWSNDIFSYNKEQVTDDTHNMIPVLMRERGLDLQGAVDFVGRLCKGTIERFETERARLPSWGPELDAQVQTYIEGLQNWIVGSLHWSFDSHRYFGKDGHAVKKHRIVKLLPKRVPQQA
notes: as for B1
B8: Copu9 (Coniophora puteana RWD-64-598 SS2) (protein)
chain: MSPTATFTTTSSEENAPTKFILPDLVSDCTYPLLLNDNCEPVARASEQWLIAGARLQEPRRTKFMGLLAGELTAACYPHADASHLRVCVDFMNWLFNMDDWLDDFDVDDTWGMRHCCLGAFRDPVGFETDKLGGLMSKSFFSRFRQDGGPGCTERFIHTMDLFFIAVAQQAGDRANGITPDLESYITVRRDTSGCKPCFALIEYAAGIDLPDHVIYHPTLAAMEEATNDLVTWSNDIFSYNKEQVTDDTHNMIPVLMRERGLDLQGAVDFVGRLCKGTIERFETERARLPSWGPELDAQVQTYIEGLQNWIVGSLHWSFDSHRYFGKDGHAVKKHRIVKLLPKRVPQQA
notes: as for B1
B9: Copu9 (Coniophora puteana RWD-64-598 SS2; S314N) (protein)
chain: MSPTATFTTTSSEENAPTKFILPDLVSDCTYPLLLNDNCEPVARASEQWLIAGARLQEPRRTKFMGLLAGELTAACYPHADASHLRVCVDFMNWLFNMDDWLDDFDVDDTWGMRHCCLGAFRDPVGFETDKLGGLMSKSFFSRFRQDGGPGCTERFIHTMDLFFIAVAQQAGDRANGITPDLESYITVRRDTSGCKPCFALIEYAAGIDLPDHVIYHPTLAAMEEATNDLVTWSNDIFSYNKEQVTDDTHNMIPVLMRERGLDLQGAVDFVGRLCKGTIERFETERARLPSWGPELDAQVQTYIEGLQNWIVGNLHWSFDSHRYFGKDGHAVKKHRIVKLLPKRVPQQA
notes: as for B1
B10: Copu9, (+)-δ-cadinol synthase from Coniophora puteana (enzyme, UniProt A0A5M3MXY8 1-349, looked up)
chain: MSPTATFTTTSSEENAPTKFILPDLVSDCTYPLLLNDNCEPVARASEQWLIAGARLQEPRRTKFMGLLAGELTAACYPHADASHLRVCVDFMNWLFNMDDWLDDFDVDDTWGMRHCCLGAFRDPVGFETDKLGGLMSKSFFSRFRQDGGPGCTERFIHTMDLFFIAVAQQAGDRANGITPDLESYITVRRDTSGCKPCFALIEYAAGIDLPDHVIYHPTLAAMEEATNDLVTWSNDIFSYNKEQVTDDTHNMIPVLMRERGLDLQGAVDFVGRLCKGTIERFETERARLPSWGPELDAQVQTYIEGLQNWIVGSLHWSFDSHRYFGKDGHAVKKHRIVKLLPKRVPQQA
notes: Copu9, sesquiterpene synthase ((+)-δ-cadinol synthase) of Coniophora puteana, XP_007765560; codon-optimised open reading frame; the crystal structure is complete except for the 13 N-terminal residues; no removal of the tag is described; Crystallised with three Mg2+ ions and alendronate (AHD); also called Copu9 WT; Copu9·Mg3·AHD; source: E. coli BL21 RIL DE3, purified (Ni2+-NTA, size exclusion …)

target: T1, Copu5 (Coniophora puteana, UniProt A0A5M3MX24); experiment: sesquiterpene production in E. coli, GC-MS and NMR of product; format: cell-based; conditions: E. coli HMS174 (DE3) with DXS and IDI co-expression, endogenous FPP; product (+)-δ-cadinol
T1 construct: full-length, codon-optimized, N-terminal hexa-His tag (pET-M11) for thermal shift, expressed in E. coli BL21 RIL DE3; purified in pyrophosphate-containing buffer; pACYC-based operon in E. coli HMS174 (DE3) for terpene production
T1 sequence (A0A5M3MX24 entry or part of it): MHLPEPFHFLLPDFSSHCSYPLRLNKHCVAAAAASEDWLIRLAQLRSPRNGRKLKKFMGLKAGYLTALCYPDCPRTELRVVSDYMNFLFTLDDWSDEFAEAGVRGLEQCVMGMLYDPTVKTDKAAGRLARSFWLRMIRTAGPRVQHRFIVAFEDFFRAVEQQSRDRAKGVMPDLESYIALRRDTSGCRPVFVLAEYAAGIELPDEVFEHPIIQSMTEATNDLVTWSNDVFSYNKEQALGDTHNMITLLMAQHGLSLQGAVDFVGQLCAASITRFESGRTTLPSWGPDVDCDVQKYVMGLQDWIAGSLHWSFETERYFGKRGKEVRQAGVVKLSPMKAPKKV

Q: How did the “sesquiterpene production in E. coli, GC-MS and NMR of product” value turn out when `CC(C)=CCC/C(C)=C/CC/C(C)=C/COP(=O)(O)OP(=O)(O)O` [FPP] was run?
A: catalyze the formation of (+)-δ-cadinol as main product from its direct precursor FPP

substrate: CC(C)=CCC/C(C)=C/CC/C(C)=C/CO[P@@](=O)(O)OP(=O)(O)O; experiment: purified protein; format: biochemical, Coniophora puteana; conditions: 25 °C, FPP 0-70 µM in methanol, 0.8–1.2 µM enzyme

Q: Which results are given for B1?
A: Km: 4.42 ± 0.59 µM; kcat: 0.0262 ± 0.0007 s⁻¹; kcat/Km: 5940 M⁻¹ s⁻¹

Q: B2 was tested. Which Km did it give?
A: 8.48 ± 0.51 µM

Q: What about the kcat of the same molecule?
A: 0.0398 ± 0.0007 s⁻¹

Q: And the kcat/Km?
A: 4690 M⁻¹ s⁻¹

Q: B3 was tested. Which Km did it give?
A: 7.00 ± 0.37 µM

Q: And the kcat?
A: 0.036 ± 0.0005 s⁻¹

Q: And the kcat/Km?
A: 5140 M⁻¹ s⁻¹

Q: Which Km does the source give for B4 here?
A: 8.28 ± 0.60 µM

Q: What about the kcat of the same molecule?
A: 0.0396 ± 0.0008 s⁻¹

Q: What about the kcat/Km of the same molecule?
A: 4780 M⁻¹ s⁻¹

Q: With B5 as the molecule, how does the Km read?
A: 6.82 ± 0.77 µM

Q: And the kcat?
A: 0.0381 ± 0.001 s⁻¹

Q: And the kcat/Km?
A: 5580 M⁻¹ s⁻¹

Q: Which results are given for B6?
A: Km: 3.14 ± 0.45 µM; kcat: 0.0291 ± 0.0007 s⁻¹; kcat/Km: 9250 M⁻¹ s⁻¹

Q: Which Km does the source give for B7 here?
A: 6.28 ± 1.37 µM

Q: What about the kcat of the same molecule?
A: 0.0502 ± 0.0026 s⁻¹

Q: What about the kcat/Km of the same molecule?
A: 8000 M⁻¹ s⁻¹

Q: With B8 as the molecule, how does the Km read?
A: 4.59 ± 0.17 µM

Q: And the kcat?
A: 0.0324 ± 0.0003 s⁻¹

Q: What about the kcat/Km of the same molecule?
A: 7070 M⁻¹ s⁻¹

Q: Which Km does the source give for B9 here?
A: 5.10 ± 0.54 µM

Q: What about the kcat of the same molecule?
A: 0.0192 ± 0.0005 s⁻¹

Q: And the kcat/Km?
A: 3760 M⁻¹ s⁻¹

Target: the molecule itself
Experiment: SEC; HighLoad Superdex S200 16/60; 20 mM Tris/HCl pH 7.5, 150 mM NaCl, 5 mM MgCl2; calibrated with a high molecular weight standard
Conditions: not given

Q: B10 was tested. Which “stoichiometry N” value did it give?
A: 2
